Ends that are not written are not given here.
Target: recombinant mouse transferrin receptor (TfR) protein (mouse) (UniProt Q62351)
Assay: SPR; Biacore 3000, CM5 chip, receptors immobilised by EDC/NHS coupling (TfR 58 fmol/mm^2, LRP-1 0.025 fmol/mm^2); peptides injected at 0.25-4 uM, 5 uL/min, 25°C, 10 mM HEPES, 150 mM NaCl, 1.5 mM CaCl2, 1 mM EGTA, 0.005% Tween 20, pH 7.4; Langmuir 1:1 model, global fit

Sequence of recombinant mouse transferrin receptor (TfR) protein (mouse) (Q62351 whole entry): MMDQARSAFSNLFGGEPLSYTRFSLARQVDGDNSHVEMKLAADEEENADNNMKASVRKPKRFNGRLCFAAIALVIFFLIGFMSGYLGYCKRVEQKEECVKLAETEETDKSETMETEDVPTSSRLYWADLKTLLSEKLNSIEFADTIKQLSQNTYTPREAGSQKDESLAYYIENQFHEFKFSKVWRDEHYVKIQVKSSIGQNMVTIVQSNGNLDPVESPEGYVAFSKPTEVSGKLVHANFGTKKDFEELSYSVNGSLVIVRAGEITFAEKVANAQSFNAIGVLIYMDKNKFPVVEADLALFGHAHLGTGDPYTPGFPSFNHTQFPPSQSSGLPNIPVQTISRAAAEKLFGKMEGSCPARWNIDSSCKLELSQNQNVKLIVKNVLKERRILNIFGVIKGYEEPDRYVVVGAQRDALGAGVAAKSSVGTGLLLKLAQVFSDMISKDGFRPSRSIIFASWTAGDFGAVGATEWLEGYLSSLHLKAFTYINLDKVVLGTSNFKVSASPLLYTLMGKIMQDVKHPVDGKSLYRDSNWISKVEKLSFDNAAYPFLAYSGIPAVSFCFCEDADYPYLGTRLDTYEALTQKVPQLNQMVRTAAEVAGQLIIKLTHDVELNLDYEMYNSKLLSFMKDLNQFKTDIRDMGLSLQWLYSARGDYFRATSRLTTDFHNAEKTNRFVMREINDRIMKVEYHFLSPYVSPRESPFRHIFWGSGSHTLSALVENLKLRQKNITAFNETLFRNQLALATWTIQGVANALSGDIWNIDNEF

Kd: 1000 µM
Binder: GYRPVHNIRGHWAPGK-NH2 [GYR (peptide 2)]
